B1: SCNN1D (parent)
chain: RRPSPVLRHLELLDEFARENIDSL

Variants of: B1
Assay: protein stability index of a GFP-peptide fusion (GPS, HEK-293T) (PSI 1-6); higher = more stable
Settings: c terminus: a fixed tail appended
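Also: lentivirally expressed fusions sorted by FACS into six bins by GFP to DsRed ratio, PSI derived from sequencing read proportions per bin multiplied by bin number.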

| Variant | protein stability index |
| --- | --- |
| P3D | 2.74 |
| P3S | 2.72 |
| P3Y | 2.31 |
| P3L | 2.42 |
| P3M | 2.26 |
| P3W | 1.76 |
| P3E | 2.38 |
| P3F | 1.88 |
| P3H | 1.96 |
| P3T | 2.83 |
| P3I | 1.96 |
| P3K | 3.06 |
| P3G | 2.75 |
| P3A | 2.35 |
| P3V | 1.44 |
| P3C | 2.73 |
| P3Q | 1.92 |
| P3N | 3.06 |
| P3R | 2.85 |
| H9K | 3.28 |
| H9G | 3.76 |
| H9P | 3.95 |
| H9S | 3.68 |
| H9A | 2.65 |

| Variant | protein stability index |
| --- | --- |
| H9L | 2.17 |
| H9I | 2.24 |
| H9Q | 3.79 |
| H9M | 1.89 |
| H9F | 1.74 |
| H9R | 3.92 |
| H9E | 3.99 |
| H9T | 3.83 |
| H9C | 2.48 |
| H9V | 2.4 |
| H9D | 3.99 |
| H9Y | 1.83 |
| H9W | 1.69 |
| H9N | 4.09 |
| L7H | 3.4 |
| L7R | 3.64 |
| L7F | 3.29 |
| L7I | 3.1 |
| L7V | 3.1 |
| L7W | 2.18 |
| L7Q | 3.4 |
| L7T | 3.48 |
| L7P | 4.08 |
| L7K | 3.82 |

| Variant | protein stability index |
| --- | --- |
| L7Y | 3.24 |
| L7N | 3.6 |
| L7A | 3.04 |
| L7G | 4.17 |
| L7D | 4.49 |
| L7C | 3.53 |
| L7M | 2.9 |
| L7S | 3.38 |
| L7E | 3.53 |
| V6E | 3.37 |
| V6Y | 1.96 |
| V6C | 2.72 |
| V6L | 1.91 |
| V6F | 2.28 |
| V6P | 4.22 |
| V6S | 3.48 |
| V6M | 2.31 |
| V6Q | 2.82 |
| V6H | 3.79 |
| V6D | 4.09 |
| V6K | 2.63 |
| V6T | 2.98 |
| V6W | 1.79 |
| V6G | 3.96 |

| Variant | protein stability index |
| --- | --- |
| V6R | 2.43 |
| V6A | 2.86 |
| V6I | 1.95 |
| V6N | 3.77 |
| R2E | 3.22 |
| R2G | 3.52 |
| R2N | 3.25 |
| R2Q | 3.21 |
| R2Y | 1.63 |
| R2V | 2.93 |
| R2W | 1.78 |
| R2P | 4.61 |
| R2A | 3.98 |
| R2F | 2.22 |
| R2M | 2.5 |
| R2D | 3.41 |
| R2K | 2.85 |
| R2S | 4.32 |
| R2H | 2.68 |
| R2T | 3.55 |
| R2I | 2.6 |
| R2C | 3.38 |
| R2L | 1.94 |
| P5V | 2.43 |

| Variant | protein stability index |
| --- | --- |
| P5M | 2.5 |
| P5E | 3.77 |
| P5G | 3.53 |
| P5Y | 2.65 |
| P5D | 3.08 |
| P5S | 2.85 |
| P5C | 2.17 |
| P5A | 2.4 |
| P5T | 3.05 |
| P5Q | 4.62 |
| P5L | 2.06 |
| P5I | 2.27 |
| P5F | 2.19 |
| P5H | 2.97 |
| P5W | 1.93 |
| P5K | 3.59 |
| P5R | 3.63 |
| P5N | 3.22 |
| S4I | 2.67 |
| S4L | 2.66 |
| S4K | 3.14 |
| S4C | 2.99 |
| S4H | 2.14 |
| S4F | 2.47 |

| Variant | protein stability index |
| --- | --- |
| S4W | 2.35 |
| S4E | 3.61 |
| S4Q | 3.89 |
| S4Y | 2.5 |
| S4N | 2.34 |
| S4T | 3.15 |
| S4R | 2.87 |
| S4G | 2.65 |
| S4A | 2.63 |
| S4D | 3.68 |
| S4V | 2.82 |
| S4M | 2.88 |
| S4P | 3.17 |
| R1V | 2.36 |
| R1W | 2.18 |
| R1Q | 2.69 |
| R1M | 2.19 |
| R1P | 2.58 |
| R1Y | 1.72 |
| R1T | 2.38 |
| R1N | 2.5 |
| R1S | 2.63 |
| L10C | 3.24 |
| L10E | 4.49 |

| Variant | protein stability index |
| --- | --- |
| L10A | 3.84 |
| L10H | 3.98 |
| L10D | 4.42 |
| L10F | 3.9 |
| L10G | 3.95 |
| R8M | 3.43 |
| R8N | 4.34 |
| R8E | 4.4 |
| R8C | 2.09 |
| R8A | 3.33 |
| R8Y | 2.87 |
| R8F | 2.61 |
| R8S | 3.77 |
| R8Q | 4.09 |
| R8I | 2.37 |
| R8L | 2.49 |
| R8V | 2.99 |
| R8P | 4.18 |
| R8K | 3.5 |
| R8T | 3.59 |
| R8H | 3.61 |
| R8W | 2.7 |
| R8D | 4.71 |

— the supplement of paper PMC10567573
